Experimental data: patent US20200308242A1

What was measured:
[1] = target: T1, IFNα receptor on GloResponse ISRE-luc2P/HEK293 cells (UniProt P17181); assay: cell-based or functional assay
T1 sequence (looked up) 1: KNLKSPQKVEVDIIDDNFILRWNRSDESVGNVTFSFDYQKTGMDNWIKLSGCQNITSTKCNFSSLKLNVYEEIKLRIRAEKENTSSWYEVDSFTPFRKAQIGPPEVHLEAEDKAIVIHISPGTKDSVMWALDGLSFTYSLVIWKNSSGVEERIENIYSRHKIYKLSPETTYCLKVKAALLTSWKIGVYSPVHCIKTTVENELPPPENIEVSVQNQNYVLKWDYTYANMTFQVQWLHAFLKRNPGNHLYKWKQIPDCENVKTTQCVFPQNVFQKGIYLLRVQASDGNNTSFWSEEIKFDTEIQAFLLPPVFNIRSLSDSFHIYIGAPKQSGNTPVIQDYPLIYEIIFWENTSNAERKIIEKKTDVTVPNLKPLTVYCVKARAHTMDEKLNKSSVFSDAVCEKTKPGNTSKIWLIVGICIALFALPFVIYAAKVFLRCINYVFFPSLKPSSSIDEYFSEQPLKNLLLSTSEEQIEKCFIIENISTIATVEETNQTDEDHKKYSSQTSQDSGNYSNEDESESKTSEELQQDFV
T1 sequence (looked up) 2: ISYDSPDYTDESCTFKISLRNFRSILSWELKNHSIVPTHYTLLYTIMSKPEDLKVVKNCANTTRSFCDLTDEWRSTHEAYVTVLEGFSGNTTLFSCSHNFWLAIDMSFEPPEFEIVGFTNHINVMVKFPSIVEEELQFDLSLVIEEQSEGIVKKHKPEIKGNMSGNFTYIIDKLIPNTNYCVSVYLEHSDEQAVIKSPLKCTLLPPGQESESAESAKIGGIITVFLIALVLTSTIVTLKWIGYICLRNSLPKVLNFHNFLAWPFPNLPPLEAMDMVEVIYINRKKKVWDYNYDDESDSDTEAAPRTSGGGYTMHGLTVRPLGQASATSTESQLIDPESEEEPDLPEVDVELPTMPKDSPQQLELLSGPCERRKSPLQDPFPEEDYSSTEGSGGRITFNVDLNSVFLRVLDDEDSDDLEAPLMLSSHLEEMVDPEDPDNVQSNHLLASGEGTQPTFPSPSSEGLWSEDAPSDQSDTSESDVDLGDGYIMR

[2] = target: IL-2Rβ/IL-2Rγ receptor subunits on PathHunter U2OS IL-2Rβ/IL-2Rγ/(IL-2Rα) cells (UniProt P14784); assay: cell-based or functional assay

With “H16/L16-PVGLIG-hIFNα2a cleaved by MMP-9 (released hIFNα2a) (from UniProt P01563 24-188) (ligand)” the EC50, ISRE-luc2P/HEK293 luciferase reporter, +MMP9, no pre incubation of the cells with H16/L16 antibody [1] was 0.02 nM and the EC50, ISRE-luc2P/HEK293 luciferase reporter, +MMP9, pre incubation of the cells with H16/L16 antibody (to saturate IGF1-R binding sites) [1] was 0.02 nM.
“H16/L16-PVGLIG-hIL-15 cleaved by MMP-9 (released hIL-15) (from UniProt P40933 49-162) (ligand)” was tested, and the EC50 of IL-15-induced IL-2Rβ/IL-2Rγ dimerisation (PathHunter U2OS chemiluminescence), +MMP-9 [2] was 2.84 nM.
In the case of “NHS76-PVGLIG-hIFNα2a (from UniProt P01563 23-188)”, the EC50, ISRE-luc2P/HEK293 luciferase reporter, -MMP9 [1] is reported as 5.33 nM.
With “NHS76-PVGLIG-hIFNα2a cleaved by MMP-9 (released hIFNα2a) (from UniProt P01563 24-188) (ligand)” the EC50, ISRE-luc2P/HEK293 luciferase reporter, +MMP9 [1] was 0.03 nM.
“NHS76-PVGLIG-hIL-15 cleaved by MMP-9 (released hIL-15) (from UniProt P40933 49-162) (ligand)” was tested, and the EC50 of IL-15-induced IL-2Rβ/IL-2Rγ dimerisation (PathHunter U2OS chemiluminescence), +MMP-9 [2] was 8.84 nM.
“Recombinant human IFNα2a (from UniProt P01563 24-188) (ligand)” showed an EC50, ISRE-luc2P/HEK293 luciferase reporter, +MMP9 [1] of 0.05 nM and an EC50, ISRE-luc2P/HEK293 luciferase reporter, -MMP9 [1] of 0.08 nM.
“Recombinant human IL-15 (from UniProt P40933 49-162) (ligand)” gave an EC50 of IL-15-induced IL-2Rβ/IL-2Rγ dimerisation (PathHunter U2OS chemiluminescence), +MMP-9 [2] of 0.71 nM and an EC50 of IL-15-induced IL-2Rβ/IL-2Rγ dimerisation (PathHunter U2OS chemiluminescence), -MMP-9 [2] of 0.72 nM.
In the case of “c9G4-PVGLIG-hIFNα2a cleaved by MMP-9 (released hIFNα2a) (from UniProt P01563 24-188) (ligand)”, the EC50, ISRE-luc2P/HEK293 luciferase reporter, +MMP9 [1] is reported as 0.02 nM.
“c9G4-PVGLIG-hIL-15 cleaved by MMP-9 (released hIL-15) (from UniProt P40933 49-162) (ligand)” was tested, and the EC50 of IL-15-induced IL-2Rβ/IL-2Rγ dimerisation (PathHunter U2OS chemiluminescence), +MMP-9 [2] was 2.07 nM.
